Source: patent US20200115460A1

Columns and labels:
[1] = target: IGF-I receptor (cell line of the PathHunter IGF1R Functional Assay, DiscoverX) (UniProt P08069); assay: cell-based or functional assay
[2] = target: insulin receptor (cell line of the PathHunter INSR Functional Assay, DiscoverX) (UniProt P06213); assay: cell-based or functional assay

Substance | activation of the IGF-I receptor (PathHunter, solvent group = 100%) at 5 nM [1] [%] | activation of the IGF-I receptor (PathHunter, solvent group = 100%) at 50 nM [1] [%] | activation of the insulin receptor (PathHunter, solvent group = 100%) at 5 nM [2] [%] | activation of the insulin receptor (PathHunter, solvent group = 100%) at 50 nM [2] [%] | activation of the IGF-I receptor (PathHunter, solvent group = 100%) at 0.5 nM [1] [%]
FLAG M2 antibody | 109 | 109 | 104 | 111 | 
Insulin (ligand) | 1240 | 4620 |  |  | 184
